The sequences below were run against EPHB2 (UniProt P29323) (assay: phosphorylation enrichment, bacterial display (enrichment ratio); higher = better substrate or ligand; peptides without Tyr show the background).
EPHB2, sequence (P29323 whole entry, looked up): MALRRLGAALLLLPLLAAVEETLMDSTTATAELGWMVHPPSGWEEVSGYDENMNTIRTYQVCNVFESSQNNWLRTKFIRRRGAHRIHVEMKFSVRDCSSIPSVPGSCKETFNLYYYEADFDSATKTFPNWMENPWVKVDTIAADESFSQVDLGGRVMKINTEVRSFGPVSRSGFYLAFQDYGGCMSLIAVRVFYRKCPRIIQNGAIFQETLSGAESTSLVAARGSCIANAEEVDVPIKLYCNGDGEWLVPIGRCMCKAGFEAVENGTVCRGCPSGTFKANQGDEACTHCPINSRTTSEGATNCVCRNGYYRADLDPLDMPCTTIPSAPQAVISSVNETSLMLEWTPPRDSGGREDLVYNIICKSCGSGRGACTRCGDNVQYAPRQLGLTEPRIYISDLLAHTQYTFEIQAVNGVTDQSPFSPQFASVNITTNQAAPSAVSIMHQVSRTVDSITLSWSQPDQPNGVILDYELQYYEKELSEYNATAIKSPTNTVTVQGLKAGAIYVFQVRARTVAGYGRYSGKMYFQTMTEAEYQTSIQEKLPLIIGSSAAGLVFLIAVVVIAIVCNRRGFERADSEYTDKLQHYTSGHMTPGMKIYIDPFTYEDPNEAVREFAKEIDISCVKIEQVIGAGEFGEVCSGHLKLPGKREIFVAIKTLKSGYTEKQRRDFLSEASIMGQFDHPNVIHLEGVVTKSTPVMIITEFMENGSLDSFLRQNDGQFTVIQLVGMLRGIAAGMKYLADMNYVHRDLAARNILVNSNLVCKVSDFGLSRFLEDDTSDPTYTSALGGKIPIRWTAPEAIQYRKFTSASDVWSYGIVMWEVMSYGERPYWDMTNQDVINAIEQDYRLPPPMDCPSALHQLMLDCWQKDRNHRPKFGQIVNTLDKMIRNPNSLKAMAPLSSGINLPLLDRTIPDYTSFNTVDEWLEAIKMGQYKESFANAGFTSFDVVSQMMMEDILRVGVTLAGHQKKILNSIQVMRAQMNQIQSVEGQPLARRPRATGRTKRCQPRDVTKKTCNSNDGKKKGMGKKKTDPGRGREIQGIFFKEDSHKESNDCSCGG
SVVVPYEQPEV [TP53_Y220_P222Q] was tested, and the phosphorylation enrichment was 0.715. For SQAPGYSYTAA [CYCS_Y47_G42S], the phosphorylation enrichment was 0.408. ERMKVYVPTGF [EPHX1_Y393] showed a phosphorylation enrichment of 0.522. In the case of QQIYTYDSGIH [JUP_Y22_T19I], the phosphorylation enrichment is reported as 1.98. Sequence YLAATYPTLGQ [NF1_Y2508_V2511L] has a phosphorylation enrichment of 0.663. Work on HILRVYGGVLP [PCNX4_Y999] yielded a phosphorylation enrichment of 0.676. For LMFPDYLPCSV [SAG_Y129_T125M], the phosphorylation enrichment was 0.92. Work on ISRDVYSTDFF [NTRK2_Y702_M697I_YF] yielded a phosphorylation enrichment of 0.819. Sequence ITLKGYNLSKS [GNPTAB_Y728] has a phosphorylation enrichment of 0.346. For RRNTCYASIAK [ACADM_Y353_Y352C], the phosphorylation enrichment was 0.332. Sequence EGQKIYIDDNS [PIP4K2A_Y246_N251S] has a phosphorylation enrichment of 0.549. With HDRNTYEKFLG [TF_Y666_YF] the phosphorylation enrichment was 0.951. With NPSYNYEIVNR [DYNC1H1_Y3379] the phosphorylation enrichment was 6.48. Work on LDPDSYNMFEN [FOXC1_Y159] yielded a phosphorylation enrichment of 0.865. For KGRGEYSAIKA [PRKCD_Y374_F375S], the phosphorylation enrichment was 0.366. FRNKPYISWPS [CDC42BPB_Y1638_S1633Y_YF] gave a phosphorylation enrichment of 0.33. Work on TGQEDYDRLRP [RAC1_Y64_A59T] yielded a phosphorylation enrichment of 0.94. In the case of RYLYYYSYLLK [PTEN_Y178_V175L], the phosphorylation enrichment is reported as 1.94. DPHECYAEVFD [ALB_Y394_K396E] showed a phosphorylation enrichment of 0.807. With LSVEIYDRREY [ITGB7_Y753] the phosphorylation enrichment was 0.816. Sequence SVTCKYSPALN [TP53_Y126_T125K] has a phosphorylation enrichment of 0.457. With ETMNKYHLSGR [MYEF2_Y164_D165H] the phosphorylation enrichment was 0.355. With PIMSFYAALID [RYR1_Y2426_A2421P] the phosphorylation enrichment was 1.24. Sequence ELANLYHHVWM [BICD2_Y538_C542W] has a phosphorylation enrichment of 1.93. LGQRIYQFIQS [DYRK1B_Y271_YF] showed a phosphorylation enrichment of 5.42. GTPVMYTFDEF [COL10A1_Y623_YF] gave a phosphorylation enrichment of 0.611. CGTPEYLAPEI [PRKACA_Y205] gave a phosphorylation enrichment of 0.757. SNTFLYQLVFD [EXO1_Y284_N279S] showed a phosphorylation enrichment of 3.93. Sequence QWRTKYETDAI [MYH7_Y1375] has a phosphorylation enrichment of 0.432. VPDANYTSDEE [STK33_Y439] gave a phosphorylation enrichment of 0.801. SHNELYFEEAE [VANGL1_Y344_YF] was tested, and the phosphorylation enrichment was 0.619. ASENVYVNTAH [CTSC_Y150_I153T] showed a phosphorylation enrichment of 0.588. For SGIFQYSIAKF [FOXL2_Y83_I84S_YF], the phosphorylation enrichment was 0.525.

What follows are sequences tested against MERTK (UniProt Q12866) in the same assay as above.
MERTK, sequence (Q12866 whole entry, looked up): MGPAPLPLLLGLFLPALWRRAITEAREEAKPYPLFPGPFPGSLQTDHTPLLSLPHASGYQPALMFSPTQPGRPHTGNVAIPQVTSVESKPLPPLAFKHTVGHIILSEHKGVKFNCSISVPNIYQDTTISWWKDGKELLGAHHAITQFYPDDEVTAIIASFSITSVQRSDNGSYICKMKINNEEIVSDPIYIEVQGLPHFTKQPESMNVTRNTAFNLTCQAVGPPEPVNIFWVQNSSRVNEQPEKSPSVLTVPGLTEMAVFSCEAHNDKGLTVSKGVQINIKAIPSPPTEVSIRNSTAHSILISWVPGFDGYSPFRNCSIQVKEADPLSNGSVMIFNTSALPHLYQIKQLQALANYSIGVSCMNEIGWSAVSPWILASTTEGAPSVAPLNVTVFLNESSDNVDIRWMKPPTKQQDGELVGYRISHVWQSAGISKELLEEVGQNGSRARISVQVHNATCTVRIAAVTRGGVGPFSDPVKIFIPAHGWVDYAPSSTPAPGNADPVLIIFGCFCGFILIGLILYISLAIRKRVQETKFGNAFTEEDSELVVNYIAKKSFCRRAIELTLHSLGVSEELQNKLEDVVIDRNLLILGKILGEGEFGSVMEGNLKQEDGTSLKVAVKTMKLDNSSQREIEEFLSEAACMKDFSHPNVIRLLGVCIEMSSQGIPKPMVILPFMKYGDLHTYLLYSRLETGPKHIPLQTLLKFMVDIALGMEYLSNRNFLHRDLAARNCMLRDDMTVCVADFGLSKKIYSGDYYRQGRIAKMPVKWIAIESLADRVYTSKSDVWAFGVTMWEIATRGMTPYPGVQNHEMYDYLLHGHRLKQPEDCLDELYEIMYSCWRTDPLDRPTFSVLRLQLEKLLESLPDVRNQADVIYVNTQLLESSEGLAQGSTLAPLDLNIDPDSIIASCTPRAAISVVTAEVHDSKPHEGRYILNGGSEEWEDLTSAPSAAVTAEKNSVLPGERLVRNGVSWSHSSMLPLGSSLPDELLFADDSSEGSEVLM
SVVVPYEQPEV [TP53_Y220_P222Q] gave a phosphorylation enrichment of 0.544. For SQAPGYSYTAA [CYCS_Y47_G42S], the phosphorylation enrichment was 0.45. With ERMKVYVPTGF [EPHX1_Y393] the phosphorylation enrichment was 0.453. Work on QQIYTYDSGIH [JUP_Y22_T19I] yielded a phosphorylation enrichment of 11.1. YLAATYPTLGQ [NF1_Y2508_V2511L] was tested, and the phosphorylation enrichment was 0.742. HILRVYGGVLP [PCNX4_Y999] gave a phosphorylation enrichment of 0.444. With LMFPDYLPCSV [SAG_Y129_T125M] the phosphorylation enrichment was 0.486. ISRDVYSTDFF [NTRK2_Y702_M697I_YF] was tested, and the phosphorylation enrichment was 5.74. Work on ITLKGYNLSKS [GNPTAB_Y728] yielded a phosphorylation enrichment of 0.367. Sequence RRNTCYASIAK [ACADM_Y353_Y352C] has a phosphorylation enrichment of 0.332. In the case of EGQKIYIDDNS [PIP4K2A_Y246_N251S], the phosphorylation enrichment is reported as 0.461. With HDRNTYEKFLG [TF_Y666_YF] the phosphorylation enrichment was 0.936. For NPSYNYEIVNR [DYNC1H1_Y3379], the phosphorylation enrichment was 0.725. Sequence LDPDSYNMFEN [FOXC1_Y159] has a phosphorylation enrichment of 0.635. KGRGEYSAIKA [PRKCD_Y374_F375S] was tested, and the phosphorylation enrichment was 0.603. FRNKPYISWPS [CDC42BPB_Y1638_S1633Y_YF] gave a phosphorylation enrichment of 0.417. TGQEDYDRLRP [RAC1_Y64_A59T] gave a phosphorylation enrichment of 0.498. For RYLYYYSYLLK [PTEN_Y178_V175L], the phosphorylation enrichment was 5.64. Work on DPHECYAEVFD [ALB_Y394_K396E] yielded a phosphorylation enrichment of 0.626. Sequence LSVEIYDRREY [ITGB7_Y753] has a phosphorylation enrichment of 0.581. SVTCKYSPALN [TP53_Y126_T125K] showed a phosphorylation enrichment of 0.386. For ETMNKYHLSGR [MYEF2_Y164_D165H], the phosphorylation enrichment was 0.385. In the case of PIMSFYAALID [RYR1_Y2426_A2421P], the phosphorylation enrichment is reported as 0.732. Work on ELANLYHHVWM [BICD2_Y538_C542W] yielded a phosphorylation enrichment of 6.21. With LGQRIYQFIQS [DYRK1B_Y271_YF] the phosphorylation enrichment was 8.85. GTPVMYTFDEF [COL10A1_Y623_YF] showed a phosphorylation enrichment of 1.03. CGTPEYLAPEI [PRKACA_Y205] showed a phosphorylation enrichment of 0.463. With SNTFLYQLVFD [EXO1_Y284_N279S] the phosphorylation enrichment was 5.86. QWRTKYETDAI [MYH7_Y1375] showed a phosphorylation enrichment of 0.545. VPDANYTSDEE [STK33_Y439] was tested, and the phosphorylation enrichment was 0.621. Work on SHNELYFEEAE [VANGL1_Y344_YF] yielded a phosphorylation enrichment of 0.556. In the case of ASENVYVNTAH [CTSC_Y150_I153T], the phosphorylation enrichment is reported as 0.429. In the case of SGIFQYSIAKF [FOXL2_Y83_I84S_YF], the phosphorylation enrichment is reported as 0.469.

What follows are sequences tested against Jak2 (UniProt O60674) in the same assay as above.
Jak2, sequence (O60674 whole entry, looked up): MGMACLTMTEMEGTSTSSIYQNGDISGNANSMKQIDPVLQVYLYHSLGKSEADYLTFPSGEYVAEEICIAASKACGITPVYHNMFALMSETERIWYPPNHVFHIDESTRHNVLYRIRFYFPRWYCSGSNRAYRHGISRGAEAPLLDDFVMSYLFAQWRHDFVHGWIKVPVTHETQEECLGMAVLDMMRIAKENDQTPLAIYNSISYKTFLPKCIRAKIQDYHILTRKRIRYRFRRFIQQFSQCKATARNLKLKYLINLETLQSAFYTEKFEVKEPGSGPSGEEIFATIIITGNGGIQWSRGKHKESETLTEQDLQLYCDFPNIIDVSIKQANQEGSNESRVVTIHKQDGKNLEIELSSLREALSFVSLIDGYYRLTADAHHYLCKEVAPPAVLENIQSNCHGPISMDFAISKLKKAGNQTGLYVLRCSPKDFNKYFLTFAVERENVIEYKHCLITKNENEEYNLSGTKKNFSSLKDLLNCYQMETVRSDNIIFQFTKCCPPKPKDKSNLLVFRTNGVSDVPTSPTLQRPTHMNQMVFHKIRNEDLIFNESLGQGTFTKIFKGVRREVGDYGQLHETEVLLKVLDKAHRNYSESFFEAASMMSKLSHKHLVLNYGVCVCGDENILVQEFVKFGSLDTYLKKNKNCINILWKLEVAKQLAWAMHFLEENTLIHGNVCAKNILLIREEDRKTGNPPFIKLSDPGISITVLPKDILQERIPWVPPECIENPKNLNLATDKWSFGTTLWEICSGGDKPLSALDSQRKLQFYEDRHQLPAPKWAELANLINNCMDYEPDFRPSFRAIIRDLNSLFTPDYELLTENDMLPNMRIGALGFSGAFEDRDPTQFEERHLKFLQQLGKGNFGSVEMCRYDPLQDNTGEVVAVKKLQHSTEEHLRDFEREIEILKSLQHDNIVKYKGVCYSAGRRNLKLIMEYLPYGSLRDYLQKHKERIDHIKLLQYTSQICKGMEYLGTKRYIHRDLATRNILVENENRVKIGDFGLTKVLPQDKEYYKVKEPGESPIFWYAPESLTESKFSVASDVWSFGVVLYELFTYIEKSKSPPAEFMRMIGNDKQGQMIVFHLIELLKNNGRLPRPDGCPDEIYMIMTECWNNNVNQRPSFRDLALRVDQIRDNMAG
SVVVPYEQPEV [TP53_Y220_P222Q] was tested, and the phosphorylation enrichment was 1.24. SQAPGYSYTAA [CYCS_Y47_G42S] showed a phosphorylation enrichment of 0.765. For ERMKVYVPTGF [EPHX1_Y393], the phosphorylation enrichment was 0.557. Work on QQIYTYDSGIH [JUP_Y22_T19I] yielded a phosphorylation enrichment of 0.788. YLAATYPTLGQ [NF1_Y2508_V2511L] gave a phosphorylation enrichment of 0.754. With HILRVYGGVLP [PCNX4_Y999] the phosphorylation enrichment was 0.765. LMFPDYLPCSV [SAG_Y129_T125M] gave a phosphorylation enrichment of 3.69. With ISRDVYSTDFF [NTRK2_Y702_M697I_YF] the phosphorylation enrichment was 0.785. Sequence ITLKGYNLSKS [GNPTAB_Y728] has a phosphorylation enrichment of 0.482. For RRNTCYASIAK [ACADM_Y353_Y352C], the phosphorylation enrichment was 0.294. Sequence EGQKIYIDDNS [PIP4K2A_Y246_N251S] has a phosphorylation enrichment of 0.886. In the case of HDRNTYEKFLG [TF_Y666_YF], the phosphorylation enrichment is reported as 1.29. Sequence NPSYNYEIVNR [DYNC1H1_Y3379] has a phosphorylation enrichment of 0.656. With LDPDSYNMFEN [FOXC1_Y159] the phosphorylation enrichment was 1.44. KGRGEYSAIKA [PRKCD_Y374_F375S] was tested, and the phosphorylation enrichment was 0.636. FRNKPYISWPS [CDC42BPB_Y1638_S1633Y_YF] gave a phosphorylation enrichment of 0.424. TGQEDYDRLRP [RAC1_Y64_A59T] was tested, and the phosphorylation enrichment was 1.02. RYLYYYSYLLK [PTEN_Y178_V175L] gave a phosphorylation enrichment of 3.29. Sequence DPHECYAEVFD [ALB_Y394_K396E] has a phosphorylation enrichment of 1.01. In the case of LSVEIYDRREY [ITGB7_Y753], the phosphorylation enrichment is reported as 0.965. SVTCKYSPALN [TP53_Y126_T125K] showed a phosphorylation enrichment of 0.629. With ETMNKYHLSGR [MYEF2_Y164_D165H] the phosphorylation enrichment was 0.422. Work on PIMSFYAALID [RYR1_Y2426_A2421P] yielded a phosphorylation enrichment of 1.54. ELANLYHHVWM [BICD2_Y538_C542W] showed a phosphorylation enrichment of 1.3. LGQRIYQFIQS [DYRK1B_Y271_YF] was tested, and the phosphorylation enrichment was 0.725. Sequence GTPVMYTFDEF [COL10A1_Y623_YF] has a phosphorylation enrichment of 1.16. Sequence CGTPEYLAPEI [PRKACA_Y205] has a phosphorylation enrichment of 1.51. SNTFLYQLVFD [EXO1_Y284_N279S] showed a phosphorylation enrichment of 1.36. Work on QWRTKYETDAI [MYH7_Y1375] yielded a phosphorylation enrichment of 1.74. VPDANYTSDEE [STK33_Y439] was tested, and the phosphorylation enrichment was 1.19. In the case of SHNELYFEEAE [VANGL1_Y344_YF], the phosphorylation enrichment is reported as 1.23. Sequence ASENVYVNTAH [CTSC_Y150_I153T] has a phosphorylation enrichment of 0.772. For SGIFQYSIAKF [FOXL2_Y83_I84S_YF], the phosphorylation enrichment was 0.756.

These sequences were tested against Fyn (UniProt P06241) in the same assay as above.
Fyn, sequence (P06241 whole entry, looked up): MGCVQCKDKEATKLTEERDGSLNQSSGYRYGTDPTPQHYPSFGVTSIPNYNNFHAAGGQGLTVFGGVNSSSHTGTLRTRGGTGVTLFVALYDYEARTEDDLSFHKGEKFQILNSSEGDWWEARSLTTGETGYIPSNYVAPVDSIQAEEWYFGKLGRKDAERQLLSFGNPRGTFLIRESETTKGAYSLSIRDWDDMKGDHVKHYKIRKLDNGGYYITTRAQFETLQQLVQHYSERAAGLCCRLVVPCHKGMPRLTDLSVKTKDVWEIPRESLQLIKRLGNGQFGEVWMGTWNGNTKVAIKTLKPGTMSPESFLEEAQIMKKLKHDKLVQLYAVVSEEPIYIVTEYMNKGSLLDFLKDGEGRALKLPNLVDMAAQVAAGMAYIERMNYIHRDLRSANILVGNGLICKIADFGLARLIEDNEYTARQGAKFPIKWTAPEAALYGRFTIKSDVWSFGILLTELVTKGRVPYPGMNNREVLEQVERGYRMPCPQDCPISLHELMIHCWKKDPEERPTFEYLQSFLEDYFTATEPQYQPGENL
For SVVVPYEQPEV [TP53_Y220_P222Q], the phosphorylation enrichment was 0.532. Sequence SQAPGYSYTAA [CYCS_Y47_G42S] has a phosphorylation enrichment of 0.454. With ERMKVYVPTGF [EPHX1_Y393] the phosphorylation enrichment was 0.515. QQIYTYDSGIH [JUP_Y22_T19I] was tested, and the phosphorylation enrichment was 10.3. YLAATYPTLGQ [NF1_Y2508_V2511L] gave a phosphorylation enrichment of 0.433. HILRVYGGVLP [PCNX4_Y999] was tested, and the phosphorylation enrichment was 0.699. For LMFPDYLPCSV [SAG_Y129_T125M], the phosphorylation enrichment was 0.743. With ISRDVYSTDFF [NTRK2_Y702_M697I_YF] the phosphorylation enrichment was 3.12. Sequence ITLKGYNLSKS [GNPTAB_Y728] has a phosphorylation enrichment of 0.355. Work on RRNTCYASIAK [ACADM_Y353_Y352C] yielded a phosphorylation enrichment of 0.4. Sequence EGQKIYIDDNS [PIP4K2A_Y246_N251S] has a phosphorylation enrichment of 0.53. In the case of HDRNTYEKFLG [TF_Y666_YF], the phosphorylation enrichment is reported as 2.42. In the case of NPSYNYEIVNR [DYNC1H1_Y3379], the phosphorylation enrichment is reported as 0.479. In the case of LDPDSYNMFEN [FOXC1_Y159], the phosphorylation enrichment is reported as 0.531. KGRGEYSAIKA [PRKCD_Y374_F375S] gave a phosphorylation enrichment of 0.412. In the case of FRNKPYISWPS [CDC42BPB_Y1638_S1633Y_YF], the phosphorylation enrichment is reported as 0.345. Sequence TGQEDYDRLRP [RAC1_Y64_A59T] has a phosphorylation enrichment of 0.756. With RYLYYYSYLLK [PTEN_Y178_V175L] the phosphorylation enrichment was 0.58. DPHECYAEVFD [ALB_Y394_K396E] showed a phosphorylation enrichment of 0.753. LSVEIYDRREY [ITGB7_Y753] showed a phosphorylation enrichment of 0.675. For SVTCKYSPALN [TP53_Y126_T125K], the phosphorylation enrichment was 0.344. Work on ETMNKYHLSGR [MYEF2_Y164_D165H] yielded a phosphorylation enrichment of 0.343. With PIMSFYAALID [RYR1_Y2426_A2421P] the phosphorylation enrichment was 0.49. ELANLYHHVWM [BICD2_Y538_C542W] gave a phosphorylation enrichment of 2.75. For LGQRIYQFIQS [DYRK1B_Y271_YF], the phosphorylation enrichment was 2.42. GTPVMYTFDEF [COL10A1_Y623_YF] gave a phosphorylation enrichment of 0.733. For CGTPEYLAPEI [PRKACA_Y205], the phosphorylation enrichment was 0.531. SNTFLYQLVFD [EXO1_Y284_N279S] was tested, and the phosphorylation enrichment was 1.61. QWRTKYETDAI [MYH7_Y1375] gave a phosphorylation enrichment of 0.643. VPDANYTSDEE [STK33_Y439] was tested, and the phosphorylation enrichment was 0.701. Sequence SHNELYFEEAE [VANGL1_Y344_YF] has a phosphorylation enrichment of 0.67. In the case of ASENVYVNTAH [CTSC_Y150_I153T], the phosphorylation enrichment is reported as 0.748. For SGIFQYSIAKF [FOXL2_Y83_I84S_YF], the phosphorylation enrichment was 0.478.

— the supplement of paper PMC10065799, “High-throughput profiling of sequence recognition by tyrosine kinases and SH2 domains using bacterial peptide display” (eLife, 2023)
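Note: 11-residue human phosphosite peptides and single-mutation variants displayed on the E. coli surface, counted by deep sequencing, each peptide's frequency after selection divided by its frequency in the unselected input library; frequency after pTyr selection over input frequency; kinase dosed for 20-30% of maximal phosphorylation in three min.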
